Data set [1] is described as follows: Sensitivity and selectivity of evolved RamR sensor variants. It is filed as cell-based, Escherichia coli. The protocol:
Cell culture (20 μl) bearing the sensor library was seeded into 5 ml fresh LB containing appropriate antibiotics, 100 μg ml-1 zeocin (Thermo Fisher, R25001) and 100 uM of norbelladine (for round two) and grown at 37° C. for 7 h. Following incubation, 0.5 μl of culture was diluted into 1 ml LB medium, from which 100 μl was further diluted into 900 μl LB medium. Three hundred microliters of this mixture was then plated across three LB agar plates (100 μL per plate) containing carbenicillin, chloramphenicol and 4NB dissolved in DMSO. Plates were incubated overnight at 37° C. The following day, the brightest colonies were picked and grown overnight in 1 ml LB medium containing appropriate antibiotics in a 96-deep-well plate sealed with an AeraSeal film at 37° C. A glycerol stock of cells containing pSELIS-RamR and pReg-RamR encoding the template RamR variant was also inoculated into 5 ml LB for overnight growth.
The following day, 20 μl of each culture was used to inoculate two separate wells in a new 96-deep-well plate containing 900 μl LB medium. Additionally, eight separate wells containing 1 ml LB medium were inoculated with 20 μl of the overnight culture expressing the parental RamR variant. After 2 h of growth at 37° C., the top half of the 96-well plate was induced with 100 μl LB medium containing 10 μl DMSO, whereas the bottom half of the plate was induced with 100 μl LB medium containing 4NB dissolved in 10 μl DMSO. The concentration of 4NB used for induction is typically the same concentration used in the LB agar plate for screening during that particular round of evolution. Cultures were grown for an additional 4 h at 37° C. and 250 r.p.m. and subsequently centrifuged (3,500 g, 4° C., 10 min). Supernatant was removed, and cell pellets were resuspended in 1 ml PBS. One hundred microliters of the cell resuspension for each condition was transferred to a 96-well microtiter plate, from which the fluorescence (excitation, 485 nm; emission, 509 nm) and absorbance (600 nm) were measured using the Tecan Infinite M1000 plate reader. Clones with the highest signal-to-noise ratio (generally the top 5-10% of the screened clones) were then sequenced and subcloned into a fresh pReg-RamR vector.
For sensor variant validation, the subcloned pReg-RamR vectors expressing the sensor variants were transformed into DH10B cells expressing Pramr-GFP. […]
Glycerol stocks (20% glycerol) of strains containing the plasmids of interest were inoculated into 1 ml LB medium and grown overnight at 37° C. […] The cell resuspension (100 μl) for each condition was transferred to a 96-well microtiter plate, from which the fluorescence (excitation, 485 nm; emission, 509 nm) and absorbance (600 nm) were measured using the Tecan Infinite M1000 plate reader.

A short description of data set [2]: Biosensor-linked O-methyltransferase activity assay. It is filed as cell-based, Escherichia coli. The conditions noted are these: single mutational designs; 25, 30, 37 °C; 100 uM, 1 mM norbelladine. The protocol: Nb4OMT was expressed with the P150-RBS (riboJ) promoter-RBS on the pReg-RamR plasmid backbone (no regulator present). Cells were co-transformed with both the 40MT plasmid and the 4NB reporter plasmid and plated on an LB agar plate containing appropriate antibiotics. Three individual colonies from each transformation were picked into LB and grown overnight. Resulting cultures were diluted 50-fold into 1 ml LB medium containing the indicated concentration of norbelladine in a 96-deep-well plate and were grown at the indicated temperature for 24 h. Subsequently, the fluorescence of cultures was measured in the same manner as previously described in Dose-response measurement above.

Data set [3] is described as follows: Steady state kinetics of purified Nb4OMT variants. Type of data set: biochemical. The protocol:
Reactions for kinetics measurements were performed in triplicate for all enzyme variants. For each variant 1.5 ml reactions containing 3.5 nM of enzyme, 500 μM SAM, 2 mM CaCl2), and 15.625, 31.25, 62.5, 125, 250, or 500 μM norbelladine in PBS pH 7.5 were incubated at 37° C. for 4 hours. Every hour a 200 μl aliquot of each reaction was quenched by pipetting it into a 1.5 ml microcentrifuge tube with 20 μl of 2M HCl. The concentration of 4′-O-Methylnorbelladine was then determined using HPLC as described.
Kinetic data were fit in KinTek Explorer simulation and data fitting software v11 (Roy, 2018). The following minimal model was used as an input. Each line represents a step in the model and the forward reaction goes from left to right while the reverse reaction goes from right to left as written. • (1) E+S=ES • (2) ES=EP • (3) EP=E+P • (4) S=P2
3.5 nM enzyme and 15.625, 31.25, 62.5, 125, 250, and 500 M substrate. The output observable was defined as EP+P. Substrate oxidation was modeled in step (4) as irreversible with a best fit value from globally fitting data from all variants to derive k4=0.00547 min^−1.To get kout/Km and kcat: k−1, k−2, and k−3 were locked at 0 min-1 (irreversible reactions). k+3 was locked at 10,000 min-1 as to not limit the rate of turnover. k+1 and k+2 were used as variable parameters in the fitting. Under these conditions, k+2=kcat and k+1=kcat/Km. For estimates of 95% confidence intervals on kinetic parameters, confidence contour analysis was used with the FitSpace function in KinTek Explorer (Bhattacharya, 2015). Confidence contour plots are calculated by systematically varying a single rate constant and holding it fixed at a particular value while refitting the data, allowing other rate constants to float. The goodness of fit was scored by the resulting χ^2 value. The confidence interval is defined based on a threshold in χ^2 calculated from the F-distribution based on the number of data points and number of variable parameters to give the 95% confidence limits. For the data given in FIGS. 20A-20C, this threshold was 0.85 to estimate the upper and lower limits for each parameter. […] We then fit the data for these two variants to the model shown below, accounting for substrate inhibition.
As before, k+1 was allowed to float in the fitting to give kcat/Km, and k−1 was locked at 0 min^−1, k+2 was allowed to float in the fitting to give kcat, and k−2 was locked at 0 min^−1. k+3 was locked at 10,000 min^−1, and k−3 was locked at 0 min^−1. k+4 and k+6 were locked at 100 μM^−1 min^−1, and k−4 and k−6 were allowed to float in the fitting as linked parameters. k+5 was linked to k+1 and k−5 was locked at 0 min^−1. k−7 was locked at 0 min^−1, and k+7 was locked at 0.00547 min^−1.

Data set [4] can be described thus: Differential scanning fluorimetry. It is filed as physicochemical. The protocol: Purified Nb4OMT variants in the concentration of 5 μM were prepared in 96-well low-profile PCR plates (ABgene, Thermo Scientific). 10×SYPRO® Orange (Molecular Probes) was added into each well and mixed prior to measurement in an RT-PCR machine (LightCycler 480, Roche). The protein melting experiments were carried out with a continuous temperature acquisition mode using 10 acquisitions per 1° C. in each cycle from 20° C. to 95° C. The melting curves of the Nb4OMT variants were monophasic and Tm values were derived using Boltzmann equation.

Numbering of substitutions follows the chain as printed. Names and notes keep the numbering of the source.

By kcat is commonly meant the number of substrate molecules converted per active site and unit of time at saturation. What is called Km is the substrate concentration at which the rate is half of its maximum.

B1: 4NB1.2: RamR variant bearing two amino acid substitutions, K63T and L66M (protein)
chain: MVARPKSEDKKQALLEAATQAIAQSGIAASTAVIARNAGVAEGTLFRYFATKDELINTLYLHLTQDMCQSMIMELDRSITDAKMMTRFIWNSYISWGLNHPARHRAIRQLAVSEKLTKETEQRADDMFPELRDLCHRSVLMVFMSDEYRAFGDGLFLALAETTMDFAARDPARAGEYIALGFEAMWRALTREEQ
modifications: Description of sequence: Improved biosensor variant K63T, L66M
For B1, the “selectivity for 4NB over norbelladine” value in data set [1] was determined as 20 fold.

B2: 4NB2.1: evolved RamR biosensor variant, K63T, L66M, C134D and S137G (protein)
chain: B1 chain with C135D, S138G
modifications: Description of sequence: Improved biosensor variant K63T, L66M, C134D, S137G
Consider B2, for which, in data set [1], the “selectivity for 4NB over norbelladine” value is given as “over 80 fold” and the “sensitivity relative to the HPLC method” value was “approximately 10 fold”. Further, the limit of detection result in data set [1] (4NB) is reported as “approximately 2.5 uM”.

B3: H17K: Nb4OMT variant with mutation H17K (protein)
chain: MGASIDDYSLVHKNILKSEDLLKYILETSAYPREHEQLKGLREVTEKHEWSSALVPADEGLFLSMLLKLMNAKRTIEIGVYTGYSLLTTALALPEDGKITAIDVNKSYYEIGLPFIQKAGVEHKINFIESEALPVLDQMLEEMKEEDLYDYAFVDADKSNYANYHERLVKLVRIGGAILYDNTLWYGSVAYPEYPGLHPEEEVARLSFRNLNTFLAADPRVEISQVSIGDGVTICRRLY
modifications: Description of sequence: Improved enzyme variant H17K
Turning to B3, the “fluorescent signal relative to the wild-type enzyme” value in data set [2] is “above wild-type in at least one tested condition”.

B4: E36P-G40E: Nb4OMT variant with mutations E36P and G40E (protein)
chain: B3 chain with K17H, E36P, G40E
modifications: Description of sequence: Improved enzyme variant E36P-G40E
B4: the “fluorescent signal relative to the wild-type enzyme” value in data set [2] is reported as “above wild-type in at least one tested condition”.

B5: H17R: Nb4OMT variant with mutation H17R (protein)
chain: B3 chain with K17R
modifications: Description of sequence: Improved enzyme variant H17R Mutation
For B5, the “fluorescent signal relative to the wild-type enzyme” value in data set [2] is “above wild-type in at least one tested condition”.

B6: S159E: Nb4OMT variant with mutation S159E (protein)
chain: B3 chain with K17H, S159E
modifications: Description of sequence: Improved enzyme variant S159E
For B6, the “fluorescent signal relative to the wild-type enzyme” value in data set [2] was “above wild-type in at least one tested condition”.

B7: E36P/G40E/A53M mutant: Nb4OMT variant with mutations E36P, G40E and A53M (protein)
chain: B3 chain with K17H, E36P, G40E, A53M
On to B7, for which the kcat in data set [3] (3.5 nM enzyme, 500 μM SAM, 37° C., PBS pH 7.5) is more than 2 s⁻¹. Also, the Km in data set [3] (calculated by dividing kcat by kcat/Km) is less than 83 µM. In addition, the substrate inhibition result in data set [3] (steady state kinetic data, highest norbelladine concentration) is “affected by substrate inhibition”. In addition, in data set [4], the “increase in Tm relative to the wild-type enzyme” value came to 5.6 °C. For the same molecule, the Tm in data set [4] (5 μM protein, SYPRO Orange) is 58.4 °C.

B8: A53R: Nb4OMT variant with substitution A53R, predicted without docking (protein)
chain: B3 chain with K17H, A53R
On to B8, for which the “fluorescent signal relative to the wild-type enzyme” value in data set [2] is “reduced activity under all tested conditions”.

B9: V203E: Nb4OMT variant with mutation V203E (protein)
chain: B3 chain with K17H, V203E
modifications: Description of sequence: Improved enzyme variant V203E
For B9, in data set [2], the “fluorescent signal relative to the wild-type enzyme” value is recorded as “above wild-type in at least one tested condition”.

The values are drawn from patent US20240336900A1, “METHODS AND COMPOSITIONS RELATED TO MODIFIED METHYLTRANSFERASES AND ENGINEERED BIOSENSORS” (BOARD OF REGENTS, THE UNIVERSITY OF TEXAS SYSTEM, priority 2023, published 2024).
